Target: human Fas (CD95/APO-1) (human) (UniProt P25445)
Assay: flow cytometric immunofluorescence on 293 cells, 2 ug/ml antibody compared with FITC-conjugated isotype control DAK-G01

Chain of UniProt P25445 (P25445 26-335 limits assumed): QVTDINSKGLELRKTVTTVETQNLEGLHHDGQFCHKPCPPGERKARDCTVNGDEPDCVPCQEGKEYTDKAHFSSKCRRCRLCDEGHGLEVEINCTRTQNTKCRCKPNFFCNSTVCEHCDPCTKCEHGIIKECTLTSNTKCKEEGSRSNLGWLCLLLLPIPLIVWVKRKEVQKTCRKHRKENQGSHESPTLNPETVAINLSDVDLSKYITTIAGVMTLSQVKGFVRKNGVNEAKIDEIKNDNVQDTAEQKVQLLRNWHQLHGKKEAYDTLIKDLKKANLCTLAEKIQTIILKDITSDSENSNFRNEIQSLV

## FITC-conjugated mouse IgG1 anti-human Fas receptor (clone DX2, Pharmingen) (antibody)
  mean Fas fluorescence, fold over nonspecific fluorescence (isotype control): 4.9 fold

Reference: patent publication US20040224389A1
